Experimental data taken from PMC13570301 (2026).

Target: UBE2D2 (1–147), from the plasmid pHis//2 Hs UBE2D2 (1–147) (human, UniProt P62837 1-147)
Experiment: BLI

Sequence of UBE2D2 (1–147), from the plasmid pHis//2 Hs UBE2D2 (1–147) (P62837 whole entry): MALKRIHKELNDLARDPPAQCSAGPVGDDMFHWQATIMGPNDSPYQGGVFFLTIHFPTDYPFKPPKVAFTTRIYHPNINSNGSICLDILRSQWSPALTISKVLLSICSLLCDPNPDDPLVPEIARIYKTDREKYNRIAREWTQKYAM

| Binder | Kd |
| --- | --- |
| CHIP wild type, recombinant, C-terminal His tag (pET30-CHIP-His) (enzyme) MKGKEEKEGGARLGAGGGSPEKSPSAQELKEQGNRLFVGRKYPEAAACYGRAITRNPLVAVYYTNRALCYLKMQQHEQALADCRRALELDGQSVKAHFFLGQCQLEMESYDEAIANLQRAYSLAKEQRLNFGDDIPSALRIAKKKRWNSIEERRIHQESELHSYLSRLIAAERERELEECQRNHEGDEDDSHVRAQQACIEAKHDKYMADMDELFSQVDEKRKKRDIPDYLCGKISFELMREPCITPSGITYDRKDIEEHLQRVGHFDPVTRSPLTQEQLIPNLAMKEVIDAFISENGWVEDY | 14.3 µM |
| CHIP P228S, recombinant, C-terminal His tag (enzyme) MKGKEEKEGGARLGAGGGSPEKSPSAQELKEQGNRLFVGRKYPEAAACYGRAITRNPLVAVYYTNRALCYLKMQQHEQALADCRRALELDGQSVKAHFFLGQCQLEMESYDEAIANLQRAYSLAKEQRLNFGDDIPSALRIAKKKRWNSIEERRIHQESELHSYLSRLIAAERERELEECQRNHEGDEDDSHVRAQQACIEAKHDKYMADMDELFSQVDEKRKKRDISDYLCGKISFELMREPCITPSGITYDRKDIEEHLQRVGHFDPVTRSPLTQEQLIPNLAMKEVIDAFISENGWVEDY | 44.9 µM |
| CHIP G33S, recombinant, C-terminal His tag (enzyme) MKGKEEKEGGARLGAGGGSPEKSPSAQELKEQSNRLFVGRKYPEAAACYGRAITRNPLVAVYYTNRALCYLKMQQHEQALADCRRALELDGQSVKAHFFLGQCQLEMESYDEAIANLQRAYSLAKEQRLNFGDDIPSALRIAKKKRWNSIEERRIHQESELHSYLSRLIAAERERELEECQRNHEGDEDDSHVRAQQACIEAKHDKYMADMDELFSQVDEKRKKRDIPDYLCGKISFELMREPCITPSGITYDRKDIEEHLQRVGHFDPVTRSPLTQEQLIPNLAMKEVIDAFISENGWVEDY | 24.2 µM |
